Data taken from the supplement of paper PMC10567573.

B1: KCNG1 (parent)
chain: AVNLSVSTLPSLREEEEQVRAHAP

Variants of: B1
Assay: protein stability index of a GFP-peptide fusion (GPS, HEK-293T) (PSI 1-6); higher = more stable
Details: c terminus: a fixed tail appended
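Further: lentivirally expressed fusions sorted by FACS into six bins by GFP to DsRed ratio, PSI derived from sequencing read proportions per bin multiplied by bin number.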

Protein stability index: each site, then its substitutions
E15: Y 3.64; I 3.92; K 4.82; Q 4.79; S 4.8; H 4.42; N 4.61; V 4.06; C 4.23; G 4.59; L 3.42; M 4.29; W 3.52; R 4.76; F 3.52; A 4.2; D 5.05; P 4.93; T 4.52
R20: D 5.96; G 5.48; C 4.79; E 5.63; F 4.48; A 5.56
R13: I 4.68; H 4.99; P 5.67; D 5.15; Q 4.91; K 4.85; S 5.2; A 5; V 4.81; L 4.77; W 4.77; Y 4.67; T 5.25; E 5.25; G 4.55; M 5.03; C 4.99; N 5.3; F 4.78
E17: G 4.64; Y 3.6; M 4.46; H 4.43; I 4.23; N 4.73; T 4.32; F 3.23; S 4.61; A 4.67; P 4.71; D 4.73; K 4.43; W 3.08; R 4.61; C 4.2; V 4.38; Q 4.69; L 4.11
E16: Y 3.63; T 4.12; I 3.27; K 4.46; G 4.67; V 4.32; F 3.59; W 3.38; R 4.18; S 4.27; Q 4.27; A 4.48; M 3.56; L 3.82; C 4.26; D 5.26; P 3.96; H 4.49; N 4.26
S11: P 4.93; M 4.54; T 4.84; Y 4.54; Q 5.01; R 4.88; V 4.83; N 4.95; W 4.35
Q18: G 5.17; F 4.17; A 4.75; K 4.75; C 4.98; V 4.55; E 5.57; I 4.82; L 5; H 4.67; T 4.99; S 5.26; M 4.77; R 4.55; P 5.04; W 4.05; N 4.95; D 5.2; Y 4.42
L12: T 5.38; Q 5.19; G 5.21; K 4.67; D 5.41; A 5; E 5.62; R 5.35; M 4.88; I 4.79; C 4.42; P 5.13; N 5.11; V 4.81; H 5.17; W 4.13; S 5.33; F 4.59; Y 4.77
V19: G 5.21; C 4.84; T 4.9; R 4.73; L 5.14; Q 5.24; W 4.46; A 4.98; I 5.15; M 4.85; Y 4.71; P 5.36; F 4.62; D 5.33; E 5.3; H 5.08; S 5.33; N 5.09; K 5.07
E14: A 4.39; K 4.3; V 4.39; W 3.9; C 4.16; I 4.37; S 4.98; P 4.8; H 4.56; Y 4.34; M 4.11; R 4.24; L 4.51; N 4.46; F 3.56; T 4.54; G 4.56; Q 4.87; D 4.96
